{
  "source": "paper PMC13324855",
  "key": {"[1]": {"target": "SARS-CoV-2 spike receptor-binding domain, Wuhan-Hu-1 (WT RBD) (SARS-CoV-2) (UniProt P0DTC2)", "experiment": "flow cytometry on cells"}, "[2]": {"target": "SARS-CoV-1 receptor-binding domain (RBD), wild type (SARS-CoV-1)", "experiment": "flow cytometry on cells"}},
  "note": "“And” between values parts separate entries of the source, which are not always exact repeats. Equal values may be shown once.",
  "data": [
    {"substance": "angiotensin converting enzyme 2 (ACE2) peptidase domain, ACE2D (domain or fragment)", "values": [
      {"measurement": "EC25", "setting": "[1]", "result": 2, "unit": "nM"},
      {"measurement": "Kd", "setting": "[2]", "result": "1.51 nM and 1.72 nM and 1.9 nM"}
    ]}
  ]
}
